Measurements taken from the nanobody polyreactivity screen of Harvey et al. (2022).

Assay: yeast display, Sf9 membrane polyspecificity reagent, FACS + sequencing; frameworks hold sequencing errors
Outline: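 Galactose induction of a Saccharomyces cerevisiae BJ5465 synthetic nanobody display library ran 36–48 hours. The cells were then stained for 1 hour at 4 °C with 10% biotinylated, detergent-solubilized Sf9 membrane reagent, pulled down on streptavidin microbeads and FACS-sorted into low and high (top ~1%) gates on expression and reagent-binding fluorescence. Labels for polyreactivity follow the gate of origin.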

Row | Sequence | polyreactivity (PSR sort gate)
1 | QVQLVESGGGIVQAGGSLRLSCAASGIIFWDNAMGWYRQAPGKERELVASINYSGGSTYYADSVKGRFTISRDNAKNTVYLQMNSLKPEDTAVYYCAARTVTLDDWDYAYDYWGQGTQVTVSS | low polyreactivity
2 | QVQLVESGGGIVQAGGSLRLSCAASGITFGRYVMGWYRQAPGKERELVAAISRSGGSTYYADSVKGRFTISRDNAKNTVYLQMNSLKPEDTAVYYCAADLRQTGYGWYDYWGQGTQVTVSS | high polyreactivity
3 | QVQLVESGGGIVQAGGSLRLSCAASGLIFRRYTMGWYRQAPGKERELVAAIRNSGSSTDYADSVKGRFTISRDNAKNTVYLQMNSLKPEDTAVYYCAKRSARKLTYDSWGQGTQVTVSS | low polyreactivity
4 | QVQLVESGGGIVQAGGSLRLSCAASGLILYWYAMGLYRQAPGKERYLVAAISISGGSTYYADSVKGRFTISRDNAKNTVYLQMNSLKPEDTAVYYCAAVYFYSWEGDGDYWGQGTQVTVSS | low polyreactivity
5 | QVQLVESGGGIVQAGGSLRLSCAASGLTFSIYPIGWYRQAPGKERELVAAISWSGGSTYYADSVKGRFTISRDNAKNTVYLQMNSLKPEDTAVYYCAARVYRPWWSYDYWGQGTQVTVSS | high polyreactivity
6 | QVQLVESGGGIVQAGGSLRLSCAASGLTICDYAMGWYRQAPGKERELVAAISSSGGRTYYADSVKGRFTISRDNAKNTVYLQMNSLKPEDTAVYYCAAQSKYYQYYSWGQGTQVTVSS | high polyreactivity
7 | QVQLVESGGGIVQAGGSLRLSCAASGNNIGGNAMGWYRQAPGKERELVAAISNSGVRTYYADSVKGRFTISRDNAKNSVDLQMNSLKPEDTAVYYCYVLGNYYGKFDYWGQGTQVTVSS | high polyreactivity
8 | QVQLVESGGGIVQAGGSLRLSCAASGRIFDGYAMGWYRQAPGKESQLVAAISATGGSTYYADSVKGRFTISRDNAKNTVYLQMNSLKPEDTAVYYCATDYVRGLYRYKLSRYEYWGQGTQETVSS | low polyreactivity
9 | QVQLVESGGGIVQAGGSLRLSCAASGRIFGYYAMGWYRQAPGKERELVARISSSGGSTYYADSVKGRFTISRDNAKNTVYVQMNSLKPEDTAVDYCNTASNRYPGWRAEFDYWGQGTQVTVSS | low polyreactivity
10 | QVQLVESGGGIVQAGGSLRLSCAASGRIFNRYAMGWYRQAPGKKWELVATISVSGANTYYADSVKGRFTISRDNAKNTVYLQMNSLKPEDTAVYSCNVKRGTIGGYYYWGQVTQVTVSS | high polyreactivity
11 | QVQLVESGGGIVQAGGSLRLSCAASGRIFSEYAMGWYRQAPGKERELVARITSSGGSTSYADSVKGRFTISRDNAKNTVYLQMNSLNPVDTAVYYCAGDGVWRRFYYLHYYWGQGTQVTVSS | high polyreactivity
12 | QVQLVESGGGIVQAGGSLRLSCAASGRIFSPNAMGWYRQAPGKERELVASISSAGSTNYADSVKGRFTISRDNAKNTVDLLMKSLIPEDTAVYYCDADQPYYGYWDWYSHEYDYWGQGTQVSVSS | low polyreactivity
13 | QVQLVESGGGIVQAGGSLRLSCAASGRIFSVYAKGWTRQAPGKERELVAAISSGGTTYYADSVKGRFTNSRDNAKNTVYLLMNSQKPDDTAVYYFAASVYYYRYNYWGQGTQVTVSS | low polyreactivity
14 | QVQLVESGGGIVQAGGSLRLSCAASGRIFTRYVMGWYRQAPGKERELVAAITGRGTTTYYADSVKGRFTISRDNAKNTVYLKMNSLKPEDTAVYYCAATYYASNPQFTTNYGYWGQGTQVTVSS | high polyreactivity
15 | QVQLVESGGGIVQAGGSLRLSCAASGRIFVRYAKGWYRQAPGKERELVAAITKSGGSTYYADSEKGRFTISRDTAKNTVYLQMNCLQPDDTAVYYCNADRFYIDYTNTYDSIRDYWGQGTLVTVSS | low polyreactivity
16 | QVQLVESGGGIVQAGGSLRLSCAASGRIYRYNAMGWYRQAPGKERELVASINQRGGSTYYADSVKGRFTISRDNAKNTVYLQMNSLKPEDTAVYYCAQSFNSGYYYWGQGTQVTVSS | high polyreactivity
17 | QVQLVESGGGIVQAGGSLRLSCAASGRNFDVYAMGWYRQAAGKERELVATISSSGVSTSYADSVKGRFTISRDNAKNTVYLQMNSLKPEDSAVYYCARKFLWKGFDYWGQGTQVTVSS | low polyreactivity
18 | QVQLVESGGGIVQAGGSLRLSCAASGRNSNRYAMGWYRQAPGKEREFVAAISKSGTSTYYADSVKGRFTISRDNAKNTVYLQMNSLKPEDTAVYYGAAKTGVGLRVNSGIGFYYWGQGTQVTVSS | high polyreactivity
19 | QVQLVESGGGIVQAGGSLRLSCAASGRSFPNNAMGWYRPAPGKERELLAAISSGSSTDYADSVKGRFTISRDNAKNTVSLQMNSLKPEATAVYYCNAGDYTYPGSPWPGYAYDYWGLGTQVTVSS | low polyreactivity
20 | QVQLVESGGGIVQAGGSLRLSCAASGRSFYRYARGWDRQAPGKERELVASITRSGITHYADSVKGRFTISRDNAKNPVYLQMISLKPEDTAVYYCNGRRGSPAPYDYWGQGTQVTVSS | high polyreactivity
21 | QVQLVESGGGIVQAGGSLRLSCAASGRTFAGYAMGWYRQAPGKERELVAGISVDDSTTYYADSVKGRFTISRDNANNTVYLQMISLKPEDTAVYYCNADYIDTFRGFDYWGQGTLVTVSS | low polyreactivity
22 | QVQLVESGGGIVQAGGSLRLSCAASGRTFFYYAMGWYRQAPGKERELVAAITTDGGTTYYADSVKGRFTISRDNAKNTVSLQMNSLKPEDTAGYYCAADASYQYYPYDYWGQGTQVTVSS | low polyreactivity

Row | Sequence | polyreactivity (PSR sort gate)
23 | QVQLVESGGGIVQAGGSLRLSCAASGRTFGYYAMRWYRQAPGKERELVAAIYWSGGSTRYADSVKGRFTISRDNAKNTVYLQMNSLNPDDTAVYYCAADSWYSFAGVYRVYGEDYWGQGTEVTVSS | low polyreactivity
24 | QVQLVESGGGIVQAGGSLRLSCAASGRTFKSYAMGWYRQAPGKERELVAAISRSGDRTYYADSVKGRFTISRDNAKNTVYLQMNSLKREDTAVYYCNARAVTGDRSDDYWGQGTHVTVSS | high polyreactivity
25 | QVQLVESGGGIVQAGGSLRLSCAASGRTFKWNAMGWYRQAPGKEREFVATISYSGGSTYYADSVKGRFTISRDIAKNSVYLQMKSLKPEDSAVYYCAAGSPYRFWHRFDYWGQGTQVTVSS | high polyreactivity
26 | QVQLVESGGGIVQAGGSLRLSCAASGRTFSPYAMGWYRQAPGKERELVAGITWSGGSTYYSDSVKGRFTISRDYAKNPVYFQMNFLKPEDTAVYYCNAVGTYAYYCSFAYDYWGQGTQVNVSS | high polyreactivity
27 | QVQLVESGGGIVQAGGSLRLSCAASGRTFSWNTMGWYRQAPGKERELVAAITRVGTTYYADSVKGRFTISRDNAKNTVYLQMNSLKPEDTAVYYCAVKGPRWAYPGVDYWGQGTQVTVSS | high polyreactivity
28 | QVQLVESGGGIVQAGGSLRLSCAASGRTFYPNGMGWYRQERGKERQLVAAITSGGRTNYADSVKGRFTISRDNAKNTVYLQMHSRKPEDTAVYYSNAVKRRSTSSGMDYWGQGTQVTVSS | high polyreactivity
29 | QVQLVESGGGIVQAGGSLRLSCAASGRTSWYYAMGWYRQAPGKERELVAAITASGGSTYADSVKGRFTISRDNAKTSVYLQMNRLKPEDSAVYYCAAERPYSRVGYYYWGQGTQVTVSS | high polyreactivity
30 | QVQLVESGGGIVQAGGSLRLSCAASGSIFFYYAMGWFRPAPGQERELVAAITSSGGTTYYADSVKGRFTISRDNAKNTVYLEMNSLKPEDTAVYDCNALTVGQRDYDYWGQGTQVTVSS | high polyreactivity
31 | QVQLVESGGGIVQAGGSLRLSCAASGSIFYGYAMGWYRQAPGNERELVAAISSGGRTKYADSVKGRFTISRDNAKNTVYLQMNSLKPEDTAVYYCNVSYLVYRWNFGWSMDYWGQGTQVTVSP | low polyreactivity
32 | QVQLVESGGGIVQAGGSLRLSCAASGSIQRYNDMGWYRQAPGKERELVAAISRSGGSTYYTDSVKGRFTISRDNAKNTDYLQMNSLKPEDTAVYFCYKASYTTVYAKYYYWGLGTQVTVSS | high polyreactivity
33 | QVQLVESGGGIVQAGGSLRLSCAASGSTFATYAMGWYRQAHGKERELVAAITRSGGITYYADSVKGRFTISRDNAKKTVYLHMKSLKPEDTAVYYCNARTRSPTFSGRYYWGQATQVTVSS | high polyreactivity
34 | QVQLVESGGGIVQAGGSLRLSCAASGSTFDGYAMGWYRQAPGKERELVAAITRSGGSTYYADSVKGRFTISRDNAKNTVYLQMNSLKPEDTEVYYCNKYGYKGGVGYDYWGQGTQVTVSS | high polyreactivity
35 | QVQLVESGGGIVQAGGSLRLSCAASGSTFNDNAMGWYRQAPGNERELVAAITGGGGRTYYADSVKGRFTISRDNAKNTVYLQMNSLKPEATAVYYCNRGATFEYWGHGTQVTVSS | low polyreactivity
36 | QVQLVESGGGIVQAGGSLRLSCAASGSTFQTYVMGWYRQAPGKERELVAAISSGGSTNYADSVKGRFTISRDNAKNTVYLQMNSLKPEDTAVYYCAKRWPYFRRGKDGYWGQGTQVTVSS | low polyreactivity
37 | QVQLVESGGGIVQAGGSLRLSCAASGSTFRGYAMGWYRQAPGKERELVAAITYISDSTYYADSVKGRFTISRDNAKNTVYLQMNCLKPVDTAVYYCNAYYDGDWRYTSQETGDHWGQGTQVTVSS | low polyreactivity
38 | QVQLVESGGGIVQAGGSLRLSCAASGSTFSSYAMGWYRQAPGKERELVAGITNSGGSTYYADSVKGRFTISRDNAKNTVYLQMNSLKPEDTAVYYCAAFPRTYSGYYYWGQGTQVTVSS | high polyreactivity
39 | QVQLVESGGGIVQAGGSLRLSCAASGSTFVNYTMGWYRQAPGKERELVATITWSGDSTYYADSVKGRFTISRDNAKNTVYLQMNSVKPEDTAVYYCAGAPLETYYYWGQGTQVTVSS | low polyreactivity
40 | QVQLVESGGGIVQAGGSLRLSCAASGSTSRDYAMGWYRTAPGKERELVAAITWSGGRTYYADSVKGRFTISRDNAKNTVYLQMNSLKPEDTAVYYCAAYHREGRRDDYWGQGTQVTVSS | low polyreactivity
41 | QVQLVESGGGIVQAGGSLRLSCAASGYIFKYYAMGWYRQAPGKERELVAAITGGVSTNYADSVKGRFTISRDNAKNTVYLQMNSLKPEDTAVYYCAAAITPSDTGSEYDYWGQGTQVTVSS | low polyreactivity
42 | QVQLVESGGGIVQAGGSLRLSCAASGYIFQYYAMGWYRQAPGKERELVAAITGGGSTKYADSVKGRFTISRDNAKNTVYLQMNSLKPEDTAVYYCAASLWYRISKYDYWGQGTQVTVSS | high polyreactivity
43 | QVQLVESGGGIVQAGGSLRLSCAASGYTFRGNVMGWYRQAPGKERELVAAISRSGGSTYYADSVKGRFTISRDNAKNTVYLQMYCLKPADTAVHYCAKKPTSTYQQDSPRWSDYWGQGTQVTVSS | high polyreactivity
